Experimental data published in a protein production outcome set (Wang et al. 2014).

Test: label from the status in PepcDB records

Row | Sequence | protein production
1 | MRGRMTRSQLILAILAGLVISIDNMISIVAFSSLIYQGALEIYIPLVINILAISVIIISASYLFMSSPPYAIAQLQDEAAILYSAMGLVIIKSMPSSSTNEAIFITILFMLGVTTCLTGLSFYFVGKFRFGNIIRYLPYPVICGFMAATGWLVLSGTFALLTGKALHQNWLVFFHKEEILLWAPGFIAGIVVYIFKEKLGYRYALQLMFISLVILFYALFYIFNLEYLVDPTEGYVLGPFNQSHIDSLMKPEIWQMIHYPFSMTLLNYIGLVILVSFIALLLNASSYELIVNKQLDLNKELRIAGIGNVFSGLLGGMVGYLSLSASTVAKEYGGARIIGVMAFVPMLLILCFGAVVVECFPKMAIGCYLFYIAFCFLSEWLINTWRLLNLSEYLIVLLILVIAIVFNMITAVAIGTVISIFIFAFRYSKINPVKYLFSGADYNSSFERNPISQSILSTQGDEIQFLKLQGFLFFGSIYRLLQLIKSIQKARYIILDFELVYNIDSSRIILMKNLKLHAEKNNISFAICSLKPIVYHELMKTNLLQSKTNWLKVFTDQESALEWCEDQVIEKYTENINIEEVTLEKQLLYLGFSSELVAWISEKASIKPYNPDDIICHEGEESNSVYFIHRGRVTAFVGDKRVLVVGSGNVLGEIAIYTHKKRTATLKTNEKTIVYEIDLKSIQELSKNKPLLLVQFHVCMAKILANRLSVLNKRIKVFDSTAILQ | failed
2 | MRGWICVKLTKLNIKKYRAPIYKYALANVNLRSAKSTNSSIITVIPQGAKMEVLDEEDDWIKVMYNSQEGYVYKDLVSVSEYAWSNLNLREDKSTTSNIITVIPEKSRVEVLQVDGDWSKVVYDDKIGYVFNYFLSIDGNKPNELDYKYFYTDMIKFVNENNIKSTSDYLIVTDLRNKYTYIFKKDNGGWGQLYKWQCTIGKPETPTITGIFYISGRKPSFGTDEYSVKYATRIKGGYYYHSVLYDSTGSYIIDGRLGEALSHGCIRLSTENAKWIYDNIPDTTTVIIH | failed
3 | MRHISPEELIALHDANISRYGGLPGMSDPGRAEAIIGRVQARVAYEEITDLFEVSATYLVATARGHIFNDANKRTALNSALLFLRRNGVQVFDSPELADLTVGAATGEISVSSVADTLRRLYGSAELEHHHHHH | not failed
4 | MRHLKSGRKLNRHSSHRLALYRNQAKSLLTHGRITTTVPKAKELRGFVDHLIHLAKRGDLHARRLVLRDLQDVKLVRKLFDEIAPRYRDRQGGYTRVLKLAERRRGDGAPLALVELVE | not failed
5 | MRHMSGDHAALVLGAGAGRRLGRSKQLLMRDGEPLLRRAARIALLTAPRRCVVVLGADADTLSEVLQDLDIEILRHPDWSEGMGSSLAALRRHVQGDPALRRSLILGCDQPALDAPHLRSLLEEADRAVSGCATSGYSGVRGIPAVVTHTAWADVPLQADSGLRGLFASLDMQSLGCVSAPALALDIDTPADLATAQQRGWVDAELEHHHHHH | failed
6 | MRHRGGRGFRGWWLASTILLLVAEKPSHGYELAERLAEFGIEIPGIGHMGNIYRVLADLEESGFLSTEWDTTVSPPRKIYRITPQGKLYLREILRSLEDMKRRIETLEERIKRVLQEE | not failed
7 | MRIAAALLAIALTGLSGAVWAETSAAIVARKPDLFHPETGLRIDRQRAPVPEDIPPPARKISALWARKLIARGALALDVYGAAQSRYDELDGTWLVPEPRQSLPGAVWLPEVGRGVLDAALQVYLERELERLTGGSKARAIVVFCVADCWMSWNAAQRIAGMGYLQVYWFPLGTDGWRELGWPLEPVEPVPVPVD | failed
8 | MRICMVSDFFYPSIGGVEEHVYNLSQMLLSLGHKIVVLTHAYGDCSGIRYVTGYLKVYYLPIKVCYNQCILPTAVCNVPMLRAVLLRERVEVVHGHSAFSALAHEALMVGSLLGLKTVFTDHSLFGFADLSAALTNNLLEVNLGMVNHAICVSHIGKENTVLRARVAKHRVSVIPNAVDTALFTPDPQQRPSNDIINIVVASRLVYRKGIDLLAGIIPRFKNTPNINFIIVGDGPKRDLLEEIREKTNMQERVQMVGAVEHNRVRDFLVRGHIFLNTSLTEAYCMAIVEAASCGLQVVSTSVGGIPEVLPKSLILLAEPEIDAIYAAILIAIDRHRKSSFKVSPSVGNGHLASDANGKVKRRRRRKVDTPISPTQLPAVSAPPADQNSSTEPVMCPYRCNELVETLYNWEDVALRTVKVYDRVLNERSFTTSELVFAVWQHGSWFLVFFVVAHFLMRLLELWRPRKHVEIAQDVQRRAS | failed
9 | MRIECYSWSDVSEQILEQAIALQNSAFEDMKGNFYQVDIPYKLVLAIDDNQVIGHVAVYLRDVYLDSFPETIGILSCVVVAHKYRGKGVAASLIKMAHAILKEHSVNFSILFAVSHAYYLSSGYIPMKNLTRFIENNEKKEFIYDGGMVCELGSQNWNVNILELNGEVV | failed
10 | MRIGIMGLGRIGAFHAETLSGLPAVTSLVVTDPFTDAAKSAAERFGAEVADSPEAVLAAGVDGVVVAAATDAHPGLVLAAVEAGVPVFCEKPVARTMREGVAVLEAVRDAGVEIQIGYNRRFDAGFVAARAAVASGELGALHTVRSTTLDPAPPPPAYVAASGGIFRDCSVHDFDIIRWVTGREVVEVYATGGNRGADYIAAAGDADTTAAVLTLDDGTLAVVSNSRHNARGHDVRMELHGFRDSIAVGLEDRLPLRSVEPGTSFPAGTPHDFFMDRFAAAYRAELTAFTEVVAGRRPSPCTVADALEAGWIAEACTLSLHSHRPVTVEEVRRQS | failed
11 | MRIIAITEKVIKELFRDKRTLAMMFLAPILIMFLMNVMFSANSNTKVKIGTINVNTKVVSNLDNIKHIQVRSFKFNSSAKKALKSNKIDALISEDNKSYTVFYANTDSSKTTLTRQAFKTAVNTMNSKELISQVKILANKNPKLAQSLQTRSKYIKEKYNYGNKNTGFFAKMIPILMGFMVFFFVFLISGMALLKERTSGTLDRLLATPVKRSDIVFGYMLSYGILAIIQTIVIVLSTIWLLDIQVVGSIFSVIIVNFILALVALSLGILMSTLAKSEFQMMQFIPLIIMPQLFFSGIIPLENMASWAQTVGKILPLSYSGDALTKIIMYGQGLPNVSSNLLVLLLFLIILTIANIFGLKRYRKV | failed
12 | MRILDYDKVIERILEFIREKGNNGVVIGISGGVDSATVAYLATKALGKEKVLGLIMPYFENKDVEDAKLVAEKLGIGYKVINIKPIVDSFVENLELNLDRKGLGNIMSRTRMIMLYAHANSLGRIVLGTSNRSEFLTGYFTKWGDGASDYAPIINLYKTEVWEIAKRIGVPERIVKKKPSAGLWEGQTDEDELGISYNLLDEILWRMIDLKIGKEEIAKDLGIPLSLVERVEELIKKSEHKRRLPIGPSFEDLIVGP | not failed
13 | MRILIASQPIAGHVLPLREIARELARRGHELRWYTGRKFRPQVEAAGAVWEGFVHARDYDDANFDAAFPGRSARRGLAQLLFDLRHVFVGQMEGQFYDLRDLERRWRPDVVLADQTVGAALLREELGGPPVALLGVLPLGIASRDTAPFGLGLAPLGGAAGQLRNRALQVLTERVVFRGISAQLADLCTWLGLPARSFAPPVAPSLMLQPSVPRLEYLRRDLPPQVRFIGPLVLPAGEFTPPAWWNDILTAERPVVLVTQGTLATRPEQLLRPALAALADEDVLVVAAGVAPERLGPLPANARAAAFVPFTALLPHVAVSLTNGGYGGTVQALSHGVPCVVAGRSEDKAEVAARVAYSGAGLNLGTATPSPARIRAAVRRVLREPAFREQAGELGHELRQHDAPREAADWLETLGGKKLEHHHHHH | failed
14 | MRILIPFKANNPKSRLSSILSEEERKELARLMLLDVIDAAKPFGEIKVVCPSELDVEGVEVVVDTSDLNTTVNKVMDEAPLAVIMSDLPLLSEEVLKRFFETEGDVVVAPGRKGGTNMLLVRKRGFRVSYHFGSFFKHLEMARKMGMKAKIFDSFYSSVDIDDESDLLELMMHGSGKKSYEFLRKIGFSVSFEETPRLERRVFMQ | failed
15 | MRILLVLAHPLEDSFAAAVARTAREALEASGHVVDLFDLYAENFDPRLSKAERGGYFDQPYDTSAVADIVARLKAADGLILVFPQWWFNFPAILKGFFDRVFAPGVAFSHDAAGGRIVPQLTHIRLLYALTTTGSPWWLVRLYMGDPVRRLLKRGIAAFCSKGLNFRMLSLHDMDRASDVKRRAHLDRVRKLLSAIR | failed
16 | MRISKTTKIGALTLIALFLLYFGLNYLKGFNVFKRANVYYAAFPEVKNVNIASPVLVNGYKVGVVKSLSFDYKNGRSIVVGIDLESEYRMPKGSHLAIHQTALSGAELRIIQGDPRDGYLNPGDTIRSETPDDIMSVTSNKIVPSVVNMMPKVDSVIVGLANMVNNPNLAVMMENMAATAQRLNRLTASLDKSIGTQLPAVMANTRTITDNVAMLSEELKQLKLEALMAELQATSENLRSFSDQIRNSNGSLGMLLNDKSLYMRLDSMASSADALLRDLKANPKRYVHFSVF | failed
